The values below are quoted from earlier work in PMC12704549.

As usually defined, the Kd is the constant that tells how readily two partners part at equilibrium.

This series has as its target pro-IL-18 (Homo sapiens) (UniProt Q14116).

caspase-4, sequence (P49662 290-377): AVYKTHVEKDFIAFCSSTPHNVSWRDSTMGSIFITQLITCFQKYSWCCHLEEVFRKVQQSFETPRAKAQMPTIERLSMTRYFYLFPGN
pro-IL-18 (Homo sapiens), sequence (Q14116 37-193): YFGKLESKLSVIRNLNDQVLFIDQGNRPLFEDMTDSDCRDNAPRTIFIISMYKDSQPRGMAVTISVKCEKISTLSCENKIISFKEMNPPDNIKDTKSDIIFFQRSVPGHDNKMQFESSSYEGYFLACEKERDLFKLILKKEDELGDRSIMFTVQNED

In the case of caspase-4 (from UniProt P49662), the Kd is 290 nM.
